Where two headings read alike, the source gives them in different places. Me3 = trimethyl-lysine, K(Me3)
Key:
[1] = molecular target: T1, WDR5Δ23 (WD repeat domain 5, residues 24–334) (human, UniProt P61964 24-334); experiment: fluorescence polarisation
[2] = molecular target: T1, WDR5Δ23 (WD repeat domain 5, residues …); experiment: fluorescence polarisation; remark: listed apart in the source

Row | Binder | IC50 [1] [µM] | Ki [1] [µM] | Ki [2] [µM] | IC50 [2] [µM]
1 | Ac-ARTKQTARKS-NH2 [Ac-H3-10mer (Ac-ARTKQTARKS-NH2)] | – | – | < 0.001 | –
2 | H-ARTK(Me3)QTARKS-NH2 [H3-10mer-K4Me3 (H2N-ARTK(Me3)QTARKS-NH2)] | – | – | 15.6 | 73

Results, then the binder that gave them:

Row | IC50 [1] [µM] | Ki [1] [µM] | Ki [2] [µM] | IC50 [2] [µM] | Binder
3 | 29 | 6.3 | – | – | Ac-RAEVHLRKS-NH2 [Ac-9mer (Ac-10mer without Ala1)]
4 | – | 0.09 | – | – | Ac-ARAEVH-NH2 [Ac-6mer]
5 | – | 0.003 | – | – | Ac-ARAEVHLRKS-NH2 [Ac-10mer (Ac-ARAEVHLRKS-NH2)]

Source: publication PMC4289617 (Journal of medicinal chemistry, 2010)
